From article PMC11906491

Target: neonatal FcR (FcRn) (UniProt P55899)
Experiment: BLI + SPR

UniProt P55899, sequence (P55899 24-365): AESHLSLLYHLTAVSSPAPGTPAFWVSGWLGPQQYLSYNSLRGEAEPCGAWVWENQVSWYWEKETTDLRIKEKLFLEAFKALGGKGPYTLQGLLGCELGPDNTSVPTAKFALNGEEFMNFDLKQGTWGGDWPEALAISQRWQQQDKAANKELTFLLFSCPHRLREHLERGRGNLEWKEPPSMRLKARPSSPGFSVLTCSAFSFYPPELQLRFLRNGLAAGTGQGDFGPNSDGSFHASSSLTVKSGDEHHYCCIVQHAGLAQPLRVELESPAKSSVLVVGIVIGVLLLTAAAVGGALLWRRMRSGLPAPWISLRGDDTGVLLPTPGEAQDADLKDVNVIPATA

| Substance | Relative FcRn affinity (%) |
| --- | --- |
| reference tocilizumab (antibody) | 96 |
| forced deamidation TCZ (antibody) | 100 |
| BAT1806/BIIB800 (antibody) | 104 |
